Reference: the supplement of paper PMC7877785
± gives the uncertainty stated by the source.

Assay: self-splicing fitness, log relative to wild type (ln ratio); higher = more splicing; Tetrahymena group I intron in knt gene, E. coli kanamycin selection, DiMSum; sequences stand for … in CUCUCU…GGAGGGAAAAGUUAUCAGGCAUGCACCUGGUAGCUAGUCUUUAAACCAAUAGAUUGCAUCGGUUUAAAAGGCAAGACCGUCAAAUUGCGGGAAAGGGGUCAACAGCCGUUCAGUACCAAGUCUCAGGGGAAACUUUGAGAUGGCCUUGCAAAGGGUAUGGUAAUAAGCUGACGGACAUGGUCCUAACCACGCAGCCAAGUCCUAAGUCAACAGAUCUUCUGUUGAUAUGGAUGCAGUUCACAGACUAAAUGUCGGUCGGGGAAGAUGUAUUCUUCUCAUAAGAUAUAGUCGGACCUCUCCUUAAUGGGAGCUAGCGGAUGAAGUGAUGCAACACUGGAGCCGCUGGGAACUAAUUUGUAUGCGAAAGUAUAUUGAUUAGUUUUGGAGUACUCGUGGUCG
Procedure, shortened: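 Colonies from six replicate transformations of E. coli BL21(DE3) were pooled and amplicon-sequenced on an Illumina HiSeq 2500. The library placed an intron with all eight P1ex-region nucleotides randomised inside the knt kanamycin-resistance gene on pET-22b(+), and cells grew overnight at 37°C or 30°C on LB agar with or without 25 μg/mL kanamycin (plus 100 μg/mL carbenicillin, 50 μM IPTG, 0.2% rhamnose). Fitness is the DiMSum error-weighted combination of wild-type-normalised replicate fold changes, kanamycin versus none.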

Row | Sequence | self-splicing fitness (ln) (30 °C) | self-splicing fitness (ln) (37 °C)
1 | UUGCAGCAAUAUUACGGUCA | 0.208 ± 0.12 | 0.556 ± 0.11
2 | AGCCAGCAAUAUUACGCGUG | -1.91 ± 0.089 | -1.35 ± 0.092
3 | GGUGAGCAAUAUUACGCUUA | -3.17 ± 0.35 | -1.92 ± 0.33
4 | CGCUAGCAAUAUUACGUGGU | -3.55 ± 0.27 | -2.61 ± 0.26
5 | AUGCAGCAAUAUUACGUGGC | -4.09 ± 0.28 | -2.53 ± 0.19
6 | ACAGAGCAAUAUUACGGUGG | -4.17 ± 0.23 | -3.01 ± 0.32
7 | AGUUAGCAAUAUUACGCAGC | -2.29 ± 0.16 | -1.18 ± 0.16
8 | UAAAAGCAAUAUUACGCGGA | -1.8 ± 0.08 | -0.32 ± 0.082
9 | CAACAGCAAUAUUACGGACA | -1.81 ± 0.1 | -0.798 ± 0.097
10 | AGCAAGCAAUAUUACGGGCG | -0.538 ± 0.061 | -0.377 ± 0.074
11 | ACAUAGCAAUAUUACGCUUC | -3 ± 0.29 | -1.82 ± 0.28
12 | CACUAGCAAUAUUACGUGCA | -2.44 ± 0.17 | -1.99 ± 0.23
13 | UAGAAGCAAUAUUACGGAAA | -2.02 ± 0.17 | -1.41 ± 0.24
14 | GUGAAGCAAUAUUACGCCAU | -2.07 ± 0.13 | -1.14 ± 0.15
15 | CUACAGCAAUAUUACGCCAA | -3.32 ± 0.17 | -3.04 ± 0.25
16 | AGAAAGCAAUAUUACGUGGU | -4.26 ± 0.29 | -2.41 ± 0.16
17 | CUGCAGCAAUAUUACGUGAG | -0.703 ± 0.067 | 0.216 ± 0.093
18 | UAAAAGCAAUAUUACGAUUA | 0.154 ± 0.073 | 0.0591 ± 0.088
19 | GCUUAGCAAUAUUACGGGUU | -1.95 ± 0.094 | -1.43 ± 0.14
20 | CUACAGCAAUAUUACGACUA | -2.2 ± 0.23 | -2.38 ± 0.35
21 | AUUAAGCAAUAUUACGGAGG | -2.32 ± 0.16 | -1.42 ± 0.27
22 | AAAUAGCAAUAUUACGACGC | -0.825 ± 0.062 | 0.13 ± 0.085
23 | CCUGAGCAAUAUUACGUGCU | -3.25 ± 0.19 | -2.24 ± 0.2
24 | CAUAAGCAAUAUUACGGGUC | -3.31 ± 0.24 | -2.97 ± 0.28
25 | ACCAAGCAAUAUUACGCAGA | -2.84 ± 0.25 | -0.709 ± 0.14
26 | CGAUAGCAAUAUUACGACCG | -1.44 ± 0.21 | 0.156 ± 0.24

Row | Sequence | self-splicing fitness (ln) (30 °C) | self-splicing fitness (ln) (37 °C)
27 | UGGGAGCAAUAUUACGGUUU | -3.58 ± 0.16 | -3.35 ± 0.23
28 | CUUGAGCAAUAUUACGACCG | -1.68 ± 0.19 | -1.16 ± 0.26
29 | CUUCAGCAAUAUUACGAAGG | -2.06 ± 0.13 | -1.08 ± 0.18
30 | UCGUAGCAAUAUUACGGGAG | -2.85 ± 0.2 | -3.28 ± 0.25
31 | UUCAAGCAAUAUUACGUCGG | -0.722 ± 0.067 | -0.516 ± 0.081
32 | AGCUAGCAAUAUUACGGGGU | -2.6 ± 0.16 | -2.13 ± 0.18
33 | CAUAAGCAAUAUUACGGCGU | -2.7 ± 0.15 | -0.836 ± 0.12
34 | UAAAAGCAAUAUUACGCUGG | -1.46 ± 0.13 | -1.65 ± 0.17
35 | AAAAAGCAAUAUUACGGUAA | -1.31 ± 0.12 | -0.53 ± 0.11
36 | UCGCAGCAAUAUUACGUUCA | -0.883 ± 0.07 | 0.0196 ± 0.064
37 | GGAAAGCAAUAUUACGCCAA | -2.36 ± 0.41 | -0.527 ± 0.29
38 | UUUGAGCAAUAUUACGGUUG | -1.79 ± 0.2 | -0.702 ± 0.36
39 | UAUCAGCAAUAUUACGCCUG | -0.368 ± 0.1 | -0.425 ± 0.1
40 | UUCAAGCAAUAUUACGAGCA | -1.01 ± 0.1 | -0.0614 ± 0.12
41 | GAAAAGCAAUAUUACGACAG | -2.55 ± 0.19 | -2.27 ± 0.25
42 | UUUCAGCAAUAUUACGGUGA | -0.66 ± 0.056 | -0.395 ± 0.064
43 | UCGGAGCAAUAUUACGGUGA | -1.82 ± 0.27 | -1.05 ± 0.2
44 | GUUUAGCAAUAUUACGUCAA | -2.3 ± 0.18 | -0.778 ± 0.16
45 | CAACAGCAAUAUUACGGGUC | -4.17 ± 0.17 | -2.66 ± 0.14
46 | CCACAGCAAUAUUACGAAUA | -2.57 ± 0.15 | -2.59 ± 0.19
47 | CGGGAGCAAUAUUACGGGGA | -2.04 ± 0.3 | -1.83 ± 0.23
48 | AUCCAGCAAUAUUACGAAGA | -1.56 ± 0.18 | -1.64 ± 0.16
49 | ACGAAGCAAUAUUACGUAAG | -2.37 ± 0.1 | -1.05 ± 0.12
50 | UUGCAGCAAUAUUACGCACC | -0.223 ± 0.47 | –
51 | GGGUAGCAAUAUUACGGGGU | -3.33 ± 0.32 | -3.06 ± 0.47
52 | UCGUAGCAAUAUUACGAGAU | -4.2 ± 0.42 | -2.6 ± 0.39

Row | Sequence | self-splicing fitness (ln) (30 °C) | self-splicing fitness (ln) (37 °C)
53 | UACCAGCAAUAUUACGCCAG | -0.698 ± 0.08 | -1.13 ± 0.1
54 | CUGUAGCAAUAUUACGUUGU | -3.59 ± 0.25 | -4.02 ± 0.33
55 | ACCAAGCAAUAUUACGCGCC | -1.35 ± 0.11 | 0.198 ± 0.14
56 | AUUUAGCAAUAUUACGCGCU | -0.923 ± 0.18 | -0.889 ± 0.15
57 | CCUCAGCAAUAUUACGUAGG | -2.71 ± 0.18 | -2.38 ± 0.3
58 | UGGCAGCAAUAUUACGAAAA | -0.512 ± 0.082 | -0.934 ± 0.1
59 | UUCAAGCAAUAUUACGACCG | -1.29 ± 0.14 | 0.147 ± 0.18
60 | GCCGAGCAAUAUUACGUUAC | -3.09 ± 0.21 | -2.3 ± 0.19
61 | UAGUAGCAAUAUUACGUAAU | -2.43 ± 0.13 | -2.19 ± 0.13
62 | UGCAAGCAAUAUUACGUACU | -0.936 ± 0.13 | 0.0223 ± 0.17
63 | GAAAAGCAAUAUUACGUGUA | -2.58 ± 0.11 | -0.56 ± 0.085
64 | UCCCAGCAAUAUUACGGCCG | -3.44 ± 0.27 | -2.02 ± 0.32
65 | GGGUAGCAAUAUUACGACGU | -0.726 ± 0.12 | -0.0177 ± 0.14
66 | CAUUAGCAAUAUUACGCAUG | -4.08 ± 0.46 | -3.16 ± 0.4
67 | UAUAAGCAAUAUUACGUUAG | -2.08 ± 0.14 | -0.812 ± 0.14
68 | CCGUAGCAAUAUUACGUACU | – | -2.03 ± 0.32
69 | GCGUAGCAAUAUUACGUGCA | -1.53 ± 0.12 | -1.02 ± 0.13
70 | GCGAAGCAAUAUUACGGGAG | -3.05 ± 0.17 | -2.62 ± 0.22
71 | GCAUAGCAAUAUUACGGGAG | -2.96 ± 0.19 | -0.949 ± 0.12
72 | ACGUAGCAAUAUUACGGCGA | 0.0177 ± 0.1 | 0.229 ± 0.12
73 | ACGAAGCAAUAUUACGCACG | -3.26 ± 0.18 | -2.22 ± 0.17
74 | UCUCAGCAAUAUUACGCCAA | -2.86 ± 0.27 | -2.74 ± 0.29
75 | UAGCAGCAAUAUUACGAUGA | -0.884 ± 0.069 | -0.42 ± 0.066
76 | UGAGAGCAAUAUUACGGGAU | – | -1.77 ± 0.37
77 | ACUAAGCAAUAUUACGGAGC | -2.87 ± 0.17 | -0.628 ± 0.14
